Data from patent US20250313643A1 (UNM RAINFOREST INNOVATIONS, published 2025).

T1: CCKBR peptide
T1 construct: It may be the same as m3 or m4; also called target CCKBR peptide; target peptide (immunization and selection)
T1 peptide: CETPRIRGTGTRELE


Key:
[1] = target: T2, human CCKBR extracellular peptide (human, UniProt P32239 39-53); test: indirect ELISA on human CCKBR peptide, OD450nm against nM scFv; column head 'Apparent kD (nM)'
T2 construct: domain: extracellular fragment of human CCK-BR; also called human peptide; human CCKBR peptide

CCKBR peptide = target: T1, CCKBR peptide; test: ELISA (panel 'Binding Affinity by ELISA'), OD450nm against nM scFv. The coated peptide is not named in the panel.
[2] = target: T2, human CCKBR extracellular peptide; test: ELISA affinity measurement
[3] = target: T2, human CCKBR extracellular peptide; test: Assay and target are not stated on the sheet. The Kd stands in the legend box of an in vivo plot. The text describes affinity measurement of the humanized variants against the human peptide.

Binder	Kd [1] [nM]	Kd (CCKBR peptide) [nM]	fold improvement in affinity compared with parental mscFv77-2 [2] [fold]	Kd [3] [nM]
mscFv77-2 Parental (scFv, V domains shown, Murine single-chain Fv; It has a kappa light chain; also called murine parent scFv; parental scFv) VH: EVQLQQAGAELVRSGASVKLSCTASGFNIKDYYIHWVKQRPEQGLEWIGWIDPENGDTEYAPKFQGKATMTADTSSNTAYLQLSSLTSEDTAVYYCNAGGRFAYWGQGTLVTVSA VL: DIVMTQSPSSLSVSAGEKVTMSCKSSQSLLNSGNQKNYLAWYQQKPGQPPKLLIYGASTRESGVPDRFTGSGSGTDFTLTISSVQAEDLAVYYCQNDHSYPYTFGGGTKLEIK	109	195		
scFv77-2 hu HC2-LC3 (scFv, also called humanized CCKBR scFv HC2-LC3; CCKBR hscFv HC2-LC3) scFv: MAQVQLVQSGAEVKKPGASVKVSCKASGFNIKDYYIHWVRQAPGQGLEWIGWIDPENGDTEYAPKFQGRATMTADTSISTAYMELSRLRSDDTAVYYCNAGGRFAYWGQGTLVTVSSGGGGSGGGGSGGGGSDIQMTQSPSTLSASVGDRVTITCKSSQSLLNSGNQKNYLAWYQQKPGKAPKLLIYGASTRESGVPSRFSGSGSGTEFTLTISSLQPDDFATYYCQNDHSYPYTFGGGTKVEIKENLYFQGAAALEHHHHHH	4.3		> 25	3.1
HC2-LC2 (scFv, also called scFv77-2 hu HC2-LC2; scFv77-2 hu HC2-linker-LC2) scFv (VH-linker-VL, with protease site and His tag): MAQVQLVQSGAEVKKPGASVKVSCKASGFNIKDYYIHWVRQAPGQGLEWIGWIDPENGDTEYAPKFQGRATMTADTSISTAYMELSRLRSDDTAVYYCNAGGRFAYWGQGTLVTVSSGGGGSGGGGSGGGGSDIQMTQSPSSLSASVGDRVTITCKSSQSLLNSGNQKNYLAWYQQKPGKAPKLLIYGASTRESGVPSRFSGSGSGTDFTLTISSLQPEDFATYYCQNDHSYPYTFGGGTKLEIKENLYFQGAAALEHHHHHH				9.8
